How the values were obtained:
[1] = biological target: T1, bovine serum albumin (bovine, UniProt P02769 25-607); assay: indirect ELISA, plate coated with BSA, antibody titrated, anti-mouse IgG-HRP, O.D. 450 nm
T1 construct: Negative control antigen; also called BSA
Protocol: (§1) Antibody target binding was evaluated by an enzyme-linked immunosorbent assay (ELISA). Briefly, Nunc MaxiSorp 96-well plates (Nunc) were coated for 18 h at 4° C. with 50 μL of 10 pg/mL Abeta1-42 or bovine serum albumin (BSA, Sigma) diluted in PBS. In selected assays, the full-length sAPPalpha fragment (Sigma) was additionally included by coating wells as described above, but at 4 pg/mL (0.04 μM). Plates were then washed 4-times with 300 μL of PBS containing 0.05% Tween20 (Millipore). To block non-specific binding to the plate, freshly prepared solution of PBS containing 0.05% Tween20 and 1% BSA, was added to each well (100 μL/well) and the plates were incubated for 1 h at 37° C. Primary antibodies were diluted to 100 nM in PBS containing 1% BSA and 0.05% Tween20, followed by 3-fold serial dilutions in duplicates. Solutions were added to plates at 50 μL/well and incubated for 1 h at 37° C. Subsequently, the plates were washed 4-times with 300 μL of PBS containing 0.05% Tween20. Plates were then incubated with horseradish peroxidase (HRP) conjugated goat anti-mouse secondary IgG (Abcam) for 1 h at 37° C. […] Finally, optical densities (O.D.) were read at 450 nm absorption wavelength using a Tecan Infinite plate reader. Measured values are expressed as mean O.D. from a duplicate run ±1 standard deviation of the mean (S.D.).

[2] = biological target: T2, Abeta1-42 (human); assay: indirect ELISA, plate coated with Abeta1-42, antibody titrated, anti-mouse IgG-HRP, O.D. 450 nm
T2 construct: coated on plates in the direct ELISA, in solution as analyte in the sandwich ELISA; also called human Abeta 1-42; amyloid-beta 1-42
Protocol: as §1

[3] = biological target: T2, Abeta1-42; assay: indirect ELISA, Abeta1-42 coated, antibody titrated
Protocol: (§2) Antibody target binding was evaluated by an enzyme-linked immunosorbent assay (ELISA). Briefly, Nunc MaxiSorp 96-well plates (Nunc) were coated for 18 h at 4° C. with 50 μL of 10 pg/mL Abeta1-42 or bovine serum albumin (BSA, Sigma) diluted in PBS. In selected assays, the full-length sAPPalpha fragment (Sigma) was additionally included by coating wells as described above, but at 4 pg/mL (0.04 μM). Plates were then washed 4-times with 300 μL of PBS containing 0.05% Tween20 (Millipore). To block non-specific binding to the plate, freshly prepared solution of PBS containing 0.05% Tween20 and 1% BSA, was added to each well (100 μL/well) and the plates were incubated for 1 h at 37° C. Primary antibodies were diluted to 100 nM in PBS containing 1% BSA and 0.05% Tween20, followed by 3-fold serial dilutions in duplicates. Solutions were added to plates at 50 μL/well and incubated for 1 h at 37° C. Subsequently, the plates were washed 4-times with 300 μL of PBS containing 0.05% Tween20. Plates were then incubated with horseradish peroxidase (HRP) conjugated goat anti-mouse secondary IgG (Abcam) for 1 h at 37° C. After final wash step (4-times with 300 μL of PBS containing 0.05% Tween20), plates were incubated with 3,3′,5,5′-tetramethylbenzidine (TMB) substrate (BD Biosciences) and reaction stopped with a Stop Solution (Sigma). Finally, optical densities (O.D.) were read at 450 nm absorption wavelength using a Tecan Infinite plate reader. Measured values are expressed as mean O.D. from a duplicate run ±1 standard deviation of the mean (S.D.).

[4] = biological target: T3, full-length sAPPalpha fragment (UniProt P05067-4 18-612, limits assumed); assay: indirect ELISA, sAPPalpha coated
T3 construct: domain: sAPPalpha; Bought protein; also called soluble APP alpha; soluble amyloid precursor protein alpha
Protocol: as §2

[5] = biological target: T4, Human Abeta1-42 biotinylated at the peptide C-terminus (human, biotin at the peptide C-terminus); assay: target capture ELISA
T4 construct: also called biotinylated Abeta1-42
Protocol: Briefly, a Nunc MaxiSorp 96-well plate (Nunc) was coated for 18 h at 4° C. with 50 μL of 5 pg/mL goat anti-mouse IgG, Fc-gamma fragment specific antibody (Jackson Immune Research) diluted in carbonate-bicarbonate buffer. The plate was then washed 4-times with 300 μL of PBS containing 0.05% Tween20 (Millipore). To block non-specific binding to the plate, freshly prepared solution of PBS containing 0.05% Tween20 and 1% BSA, was added to each well (100 μL/well) and the plate was incubated for 1 h at 37° C. […] Subsequently, the plate was washed 4-times with 300 μL of PBS containing 0.05% Tween20. […] After washing 4-times with 300 μL of PBS containing 0.05% Tween20, the plate was incubated for 45 min at ambient temperature with 50 μL/well of streptavidin-HRP (R&D systems) diluted 1:200 in PBS containing 1% BSA and 0.05% Tween20. The plate was again washed 4-times with 300 μL of PBS containing 0.05% Tween20 before incubating at ambient temperature for 20 or 30 min with 50 or 100 μL/well of 3,3′,5,5′-tetramethylbenzidine (TMB) enzyme substrate (BD Bioscience). Reaction was stopped with a 1.2 M HCl (Sigma) solution. Finally, optical densities (O.D.) were read at 450 nm absorption wavelength using a Tecan Infinite plate reader.

T3 sequence (P05067 other isoform, or with tags, fused parts or gaps limits assumed): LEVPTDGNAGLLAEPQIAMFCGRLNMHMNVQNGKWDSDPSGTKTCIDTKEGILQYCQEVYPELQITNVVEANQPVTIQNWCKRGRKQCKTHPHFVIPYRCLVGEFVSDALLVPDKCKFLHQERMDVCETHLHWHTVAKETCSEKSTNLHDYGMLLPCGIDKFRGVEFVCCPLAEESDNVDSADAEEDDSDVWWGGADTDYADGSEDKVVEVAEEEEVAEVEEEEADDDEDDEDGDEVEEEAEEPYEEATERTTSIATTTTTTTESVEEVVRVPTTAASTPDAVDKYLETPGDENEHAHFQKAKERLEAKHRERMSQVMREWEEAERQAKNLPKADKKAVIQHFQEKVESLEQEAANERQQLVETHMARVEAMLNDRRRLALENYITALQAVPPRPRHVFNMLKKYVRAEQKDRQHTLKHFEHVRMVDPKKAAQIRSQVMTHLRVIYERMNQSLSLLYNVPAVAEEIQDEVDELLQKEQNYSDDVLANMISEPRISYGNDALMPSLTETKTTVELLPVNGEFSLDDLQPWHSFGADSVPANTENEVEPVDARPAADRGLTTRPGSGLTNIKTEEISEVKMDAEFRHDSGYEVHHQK

- binding result [1]: no binding (tested: 100 nM)
- EC50 (read off the curve) [2]: ~0.2 nM
- Kd [3]: 0.196 nM
- binding result [4]: no binding
- binding result [5]: binds
B1: ACI-31-30C11-Ab1 (murine IgG2a with a kappa light chain) (antibody, V domains shown)
VH: QVQLQQSGPELVKPGASVKISCKASGYAFSSSWLNWVKQRPGEGLEWIGRIYPGDGDINYNGKFKGKATLTADKSSSTAYMQLSSLTSDDSAVYFCTKRGRYALDYWGQGTSVTVSS
VL: DIVLTQSPASLAVSLGQRATISCRASKSVDNYGKSFMHWFQQKPGQPPKLLIYRASNLESGIPARFSGSGSRTDFTLTINPVEADDVATYYCQQSNEDPYTFGGGTKLEMKR
notes: also called AC-31-30C11-Ab1

— patent US20230034474A1 (AC IMMUNE, published 2023)
